In test [1] the target is T1, mouse PlexinA1 recombinant protein expressed on Ba/F3 cells (mouse, UniProt P70206 25-1290).
T1 construct: also called Mouse PlexinA1/BaF3; mouse PlexinA1-expressing cell line
The experiment in a line: cell ELISA on mouse PlexinA1-expressing Ba/F3 cells against Ba/F3 cells. Here is the method: The antibodies obtained above were subjected to cell ELISA by the following procedure. Initially, 384-well plates were prepared, and mouse PlexinA1-expressing Ba/F3 cells and Ba/F3 cells (see Example 11) were each captured onto the bottom of different wells. After washing each well of the plates with PBS, the prepared antibodies were added at 20 μL/well, and the mixture was allowed to stand at room temperature for 1 hour. Then, each well was washed with 0.05% Tween 20-PBS, HRP-labeled anti-rabbit IgG antibody (Betyl, A120-101P) diluted 10000 times with 2% FBS-PBS was added at 20 μL/well, and the mixture was allowed to stand at room temperature for 1 hour. After washing each well of the plates with 0.05% Tween 20-PBS, the substrate solution (ABTS peroxidase substrate system) was dispensed at 20 μL/well to develop color for 1 hour at room temperature. Then, binding of the antibodies to mouse PlexinA1 was confirmed by measuring absorbance at 405 nm using SpectraMax from Molecular Devices, LLC.

The target in test [2] is soluble mouse PlexinA1 protein (mouse, UniProt P70206 28-1242). The test can be described thus: BLI (OctetRED384), antibody on Protein G biosensor, mouse PlexinA1 at 260 nM. As for the experimental part:
Note that the L chains of the antibodies derived from the human antibody naive library were not chimerized.
Specifically, the antibodies adjusted to 10 µg/mL by 10× diluted HBS-EP+(GE healthcare, BR-1006-69) were immobilized onto Protein G biosensors (ForteBIO), and human and mouse PlexinA1 adjusted to 260 nM with HBS-EP+ were applied thereto. The Protein G biosensors were regenerated using 10 mmol/L Glycine-HCl, pH 1.5 (GE Healthcare, BR-1003-54). After the measurement, analytical software Data analysis 7.0 (ForteBIO) was used to compute amounts of binding (FIG. 5). […] In FIG. 5, the vertical axis represents amounts of binding to human and mouse PlexinA1.

Chain of soluble mouse PlexinA1 protein (P70206 other isoform, or with tags, fused parts or gaps limits assumed): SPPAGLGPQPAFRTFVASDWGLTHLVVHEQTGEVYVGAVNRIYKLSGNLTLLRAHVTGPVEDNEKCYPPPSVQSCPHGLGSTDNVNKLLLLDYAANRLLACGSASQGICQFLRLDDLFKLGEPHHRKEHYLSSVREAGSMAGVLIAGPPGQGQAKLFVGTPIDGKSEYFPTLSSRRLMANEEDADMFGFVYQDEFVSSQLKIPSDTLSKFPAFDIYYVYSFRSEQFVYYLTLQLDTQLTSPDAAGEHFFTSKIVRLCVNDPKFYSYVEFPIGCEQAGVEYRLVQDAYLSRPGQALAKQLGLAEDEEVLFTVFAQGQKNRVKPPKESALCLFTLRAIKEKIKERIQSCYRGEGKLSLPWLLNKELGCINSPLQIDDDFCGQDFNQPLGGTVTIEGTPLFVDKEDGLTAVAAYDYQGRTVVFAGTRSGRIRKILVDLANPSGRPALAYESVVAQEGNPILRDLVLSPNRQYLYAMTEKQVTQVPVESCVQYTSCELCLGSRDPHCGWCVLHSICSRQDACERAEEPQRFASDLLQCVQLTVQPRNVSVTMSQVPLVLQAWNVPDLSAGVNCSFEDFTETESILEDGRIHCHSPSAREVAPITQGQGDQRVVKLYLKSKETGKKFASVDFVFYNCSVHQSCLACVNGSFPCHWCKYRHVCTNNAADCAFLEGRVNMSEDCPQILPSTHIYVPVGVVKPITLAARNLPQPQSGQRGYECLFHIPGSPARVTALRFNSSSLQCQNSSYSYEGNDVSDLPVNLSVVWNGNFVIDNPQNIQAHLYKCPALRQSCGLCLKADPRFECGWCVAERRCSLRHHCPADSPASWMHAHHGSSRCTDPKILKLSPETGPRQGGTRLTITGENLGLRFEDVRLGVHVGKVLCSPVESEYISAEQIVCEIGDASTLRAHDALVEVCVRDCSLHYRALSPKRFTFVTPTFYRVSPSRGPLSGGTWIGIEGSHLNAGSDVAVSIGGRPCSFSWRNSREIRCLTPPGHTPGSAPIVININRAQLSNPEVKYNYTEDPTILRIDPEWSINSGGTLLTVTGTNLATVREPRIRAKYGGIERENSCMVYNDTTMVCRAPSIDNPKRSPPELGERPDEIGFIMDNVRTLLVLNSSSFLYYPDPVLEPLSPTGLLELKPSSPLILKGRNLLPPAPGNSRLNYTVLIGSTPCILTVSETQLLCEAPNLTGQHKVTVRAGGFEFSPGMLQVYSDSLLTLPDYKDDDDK
T1 sequence (P70206 other isoform, or with tags, fused parts or gaps limits assumed): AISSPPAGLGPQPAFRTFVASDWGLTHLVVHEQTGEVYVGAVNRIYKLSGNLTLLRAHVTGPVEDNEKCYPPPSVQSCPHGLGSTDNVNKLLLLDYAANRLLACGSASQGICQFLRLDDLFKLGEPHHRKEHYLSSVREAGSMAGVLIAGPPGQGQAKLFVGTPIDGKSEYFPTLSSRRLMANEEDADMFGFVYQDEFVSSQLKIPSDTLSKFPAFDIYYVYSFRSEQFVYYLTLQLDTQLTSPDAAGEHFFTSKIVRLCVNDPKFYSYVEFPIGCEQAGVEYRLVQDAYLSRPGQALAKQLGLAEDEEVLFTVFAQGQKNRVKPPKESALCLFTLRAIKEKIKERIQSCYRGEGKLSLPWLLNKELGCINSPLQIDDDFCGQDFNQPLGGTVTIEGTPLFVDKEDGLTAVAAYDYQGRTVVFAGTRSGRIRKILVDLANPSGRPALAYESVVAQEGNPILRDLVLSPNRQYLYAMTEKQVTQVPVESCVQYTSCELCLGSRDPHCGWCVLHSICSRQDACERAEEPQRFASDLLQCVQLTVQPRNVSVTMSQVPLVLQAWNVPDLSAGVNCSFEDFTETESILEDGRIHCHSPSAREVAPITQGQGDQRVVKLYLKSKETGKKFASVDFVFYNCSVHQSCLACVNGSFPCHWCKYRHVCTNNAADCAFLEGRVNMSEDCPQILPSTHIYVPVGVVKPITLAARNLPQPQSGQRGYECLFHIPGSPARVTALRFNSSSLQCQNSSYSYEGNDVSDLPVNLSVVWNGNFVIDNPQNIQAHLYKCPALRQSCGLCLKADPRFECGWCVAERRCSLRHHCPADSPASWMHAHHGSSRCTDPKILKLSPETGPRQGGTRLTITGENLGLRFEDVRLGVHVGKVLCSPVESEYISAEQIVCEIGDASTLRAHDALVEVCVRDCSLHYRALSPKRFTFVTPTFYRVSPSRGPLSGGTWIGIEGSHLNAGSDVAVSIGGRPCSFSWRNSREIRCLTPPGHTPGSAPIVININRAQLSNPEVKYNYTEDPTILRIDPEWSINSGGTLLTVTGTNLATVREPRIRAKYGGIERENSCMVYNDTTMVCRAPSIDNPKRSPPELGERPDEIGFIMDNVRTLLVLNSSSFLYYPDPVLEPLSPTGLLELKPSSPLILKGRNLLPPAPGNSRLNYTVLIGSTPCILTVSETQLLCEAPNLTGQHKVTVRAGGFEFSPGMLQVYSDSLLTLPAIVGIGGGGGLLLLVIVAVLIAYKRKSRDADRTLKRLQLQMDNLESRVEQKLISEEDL

B1: anti-mouse PlexinA1 antibody PXB361b (antibody)
heavy: QSLEESGGDLVKPEGSLTLSCTASGFTISSSYWICWVRQAPGKGLEWIACIYVGSGDGYTYYASWAKGRFTISKTSSTTVTLRMTSLTAADTATYFCARGGDGGVGGFDFFDPWGPGTLVTVSSGQPKAPSVFPLAPCCGDTPSSTVTLGCLVKGYLPEPVTVTWNSGTLTNGVRTFPSVRQSSGLYSLSSVVSVTSSSQPVTCNVAHPATNTKVDKTVAPSTCSKPMCPPPELLGGPSVFIFPPKPKDTLMISRTPEVTCVVVDVSQDDPEVQFTWYINNEQVRTARPPLREQQFNSTIRVVSTLPIAHQDWLRGKEFKCKVHNKALPAPIEKTISKARGQPLEPKVYTMGPPREELSSRSVSLTCMINGFYPSDISVEWEKNGKAEDNYKTTPTVLDSDGSYFLYSKLSVPTSEWQRGDVFTCSVMHEALHNHYTQKSISRSPGK
light: DVVLTQTPASVSEPVGGTVTIKCQATESINRNCAWYQQKPGQPPKLLIYRASTLASGVPSRFKGSGSGTEFTLTISDLECADAATYYCQCTDYGTYYVAFGGGTEVVVKGDPVAPTVLIFPPAADQVATGTVTIVCVANKYFPDVTVTWEVDGTTQTTGIENSKTPQNSADCTYNLSSTLTLTSTQYNSHKEYTCKVTQGTTSVVQSFNRGDC
notes: Antagonist antibody
Take B1: the binding result in test [1] was “binds”.

B2: mouse chimeric anti-mouse PlexinA1 antibody PXB693-mFc (antibody, mouse IgG2a, kappa)
heavy: QSVEESGGRLVTPGTPLTLTCTVSGFSLSSSAMTWVRQAPGKGLEWIGIINNSNIAAYASWTKGRFTISKTSTTVDLKITSPIIEDTATYFCARGDVGTTHYFNIWGPGTLVTVSSAKTTAPSVYPLAPVCGDTTGSSVTLGCLVKGYFPEPVTLTWNSGSLSSGVHTFPAVLQSDLYTLSSSVTVTSSTWPSQSITCNVAHPASSTKVDKKIEPRGPTIKPCPPCKCPAPNLRRGPKVFIFPPKIKDVLMISLSPIVTCVVVDVSEDDPDVQISWFVNNVEVHTAQTQTHREDYNSTLRVVSALPIQHQDWMSGKEFKCKVNNKDLPAPIERTISKPKGSVRAPQVYVLPPPEEEMTKKQVTLTCMVTDFMPEDIYVEWTNNGKTELNYKNTEPVLDSDGSYFMYSKLRVEKKNWVERNSYSCSVVHEGLHNHHTTKSFSRTPGK
light: AAVLTQTPSPVSAVVGGTVSISCQSSKSVYNNNWLSWFQQKPGQPPKLLIYGASTLASGVPSRFKGSGSGTQFTLAISDVQCDDAATYYCAGGYINSDNFAFGGGTEVVVKRADAAPTVSIFPPSSEQLTSGGASVVCFLNNFYPKDINVKWKIDGSERQNGVLNSWTDQDSKDSTYSMSSTLTLTKDEYERHNSYTCEATHKTSTSPIVKSFNRNEC
notes: Rabbit variable regions on mouse IgG2a heavy and mouse light chain constant regions; Agonist antibody
Take B2: the binding result in test [2] was “binds”.

B3: anti-mouse PlexinA1 antibody PXB693 (antibody)
heavy: QSVEESGGRLVTPGTPLTLTCTVSGFSLSSSAMTWVRQAPGKGLEWIGIINNSNIAAYASWTKGRFTISKTSTTVDLKITSPIIEDTATYFCARGDVGTTHYFNIWGPGTLVTVSSGQPKAPSVFPLAPCCGDTPSSTVTLGCLVKGYLPEPVTVTWNSGTLTNGVRTFPSVRQSSGLYSLSSVVSVTSSSQPVTCNVAHPATNTKVDKTVAPSTCSKPMCPPPELLGGPSVFIFPPKPKDTLMISRTPEVTCVVVDVSQDDPEVQFTWYINNEQVRTARPPLREQQFNSTIRVVSTLPIAHQDWLRGKEFKCKVHNKALPAPIEKTISKARGQPLEPKVYTMGPPREELSSRSVSLTCMINGFYPSDISVEWEKNGKAEDNYKTTPTVLDSDGSYFLYSKLSVPTSEWQRGDVFTCSVMHEALHNHYTQKSISRSPGK
light: AAVLTQTPSPVSAVVGGTVSISCQSSKSVYNNNWLSWFQQKPGQPPKLLIYGASTLASGVPSRFKGSGSGTQFTLAISDVQCDDAATYYCAGGYINSDNFAFGGGTEVVVKGDPVAPTVLIFPPAADQVATGTVTIVCVANKYFPDVTVTWEVDGTTQTTGIENSKTPQNSADCTYNLSSTLTLTSTQYNSHKEYTCKVTQGTTSVVQSFNRGDC
In the case of B3, in test [1], the binding result was “binds”.

B4: mouse chimeric human/mouse cross-reactive PlexinA1 antibody 359B2-2-3-6-mFc (antibody, mouse IgG2a, lambda, V domains shown)
VH: QVQLVQSGAEVKKPGASVKVSCKASGYTFTSYYMHWVRQAPGQGLEWMGIINPSGGSTSYAQKFQGRVTMTRDTSTSTVYMELSSLRSEDTAVYYCARAPGHYYYGMDVWGQGTTVTVSS
VL: SYELTQPPSVSVSPGQTASITCSGDKLEDKYASWYQLKPGHSPVLVIYQDSKRPSGIPERFSGSNSGNTATLTISGTQAMDEADYYCRAWDSNTGDVVFGGGTKLTVLR
notes: Mouse IgG2a heavy chain constant region; human light chain kept
In the case of B4, the binding result in test [2] is given as “binds”.

B5: mouse chimeric anti-mouse PlexinA1 antibody PXB361b-mFc (antibody, mouse IgG1, kappa)
heavy: QSLEESGGDLVKPEGSLTLSCTASGFTISSSYWICWVRQAPGKGLEWIACIYVGSGDGYTYYASWAKGRFTISKTSSTTVTLRMTSLTAADTATYFCARGGDGGVGGFDFFDPWGPGTLVTVSSAKTTPPSVYPLAPGSAAQTNSMVTLGCLVKGYFPEPVTVTWNSGSLSSGVHTFPAVLQSDLYTLSSSVTVPSSTWPSETVTCNVAHPASSTKVDKKIVPRDCGCKPCICTVKEVSKVFIFPPKPKDVLTITLTPKVTCVVVDISKDDPEVQFSWFVDDVEVHTAQTQPREEQFNSTFRSVSELPIMHQDWLNGKEFKCRVNSAAFPAPIEKTISKTKGRPKAPQVYTIPPPKEQMAKDKVSLTCMITDFFPEDITVEWQWNGQPAENYKNTQPIMDTDGSYFVYSKLNVQKSNWEAGNTFTCSVLHEGLHNHHTEKSLSHSPGK
light: DVVLTQTPASVSEPVGGTVTIKCQATESINRNCAWYQQKPGQPPKLLIYRASTLASGVPSRFKGSGSGTEFTLTISDLECADAATYYCQCTDYGTYYVAFGGGTEVVVKRADAAPTVSIFPPSSEQLTSGGASVVCFLNNFYPKDINVKWKIDGSERQNGVLNSWTDQDSKDSTYSMSSTLTLTKDEYERHNSYTCEATHKTSTSPIVKSFNRNEC
notes: Rabbit variable regions on mouse IgG1 heavy and mouse light chain constant regions; Antagonist antibody
Regarding B5, in test [2], the binding result is “binds”.

The values above are taken from patent publication US20200276302A1 (OSAKA UNIVERSITY, published 2020).
